Experimental data published in patent EP4729537A1, “B-LACTAMASE-INHIBITING ANTIBODY AND USE THEREOF IN THE TREATMENT AND/OR PREVENTION OF INFECTIONS CAUSED BY B-LACTAMASE-PRODUCING BACTERIA” (priority 2023, dated 2024).
Several values for one entry are separate records, joined by “and”; a condition that tells them apart may be missing. Equal values may be shown once.

Experiments:
[1] = system: O=C(Cc1cccs1)N[C@@H]1C(=O)N2C(C(=O)O)=C(/C=C/c3ccc([N+](=O)[O-])cc3[N+](=O)[O-])CS[C@H]12; experiment: nitrocefin hydrolysis assay with E. coli BL21(DE3) cells expressing the β-lactamase in the periplasm; format: cell-based, Pseudomonas aeruginosa; conditions: other: E. coli cells, control without antibody (controls of the B2 and B5 runs)
Protocol: (§1) An in vivo assay was conducted to test the inhibitory capacity of four β-lactamases from three resistant microorganisms: BlaMab from Mycobacterium abscessus, KPC-2 (UNIPROT Q9F663) and OXA-48 (UNIPROT Q6XEC0) from Klebsiella pneumoniae, and VIM-2 (UNIPROT B8QIQ9) from Pseudomonas aeruginosa. The assay utilized BL21(DE3) strain cells of Escherichia coli transformed with the expression vector pET26b(+) along with the gene sequence of each β-lactamase. Cells successfully transformed with the vector and insert were selected using a Kanamycin resistance gene (KanR) present in the vector. […] Additionally, the pET26b(+) vector has an IPTG-inducible promoter to activate the translation of the corresponding β-lactamase. The plasmid also includes a pelB export signal directing the β-lactamase to the periplasmic space of the bacteria for the inhibition assay with Ndis (nanobodies, single-domain antibodies).
(§2) This compound changes color from yellow to red when hydrolyzed by β-lactamase, which can be quantified by measuring absorbance at 490nm.

[2] = system: O=C(Cc1cccs1)N[C@@H]1C(=O)N2C(C(=O)O)=C(/C=C/c3ccc([N+](=O)[O-])cc3[N+](=O)[O-])CS[C@H]12; experiment: as above; format: cell-based, Klebsiella pneumoniae; conditions: other: E. coli cells, control without antibody (controls of the B2 and B5 runs)
Protocol: as §1, §2

Substance	Km [1]	Km [2] [µM]
VIM-2 (UNIPROT B8QIQ9) from Pseudomonas aeruginosa (Pseudomonas aeruginosa)	4.35 µM and 6.75 µM	
OXA-48 (UNIPROT Q6XEC0) from Klebsiella pneumoniae (Klebsiella pneumoniae)		4.48
